Assay results: article PMC3601965, “Conformational Change-Induced Repeat Domain Expansion Regulates Rap Phosphatase Quorum-Sensing Signal Receptors” (PLoS Biology, 2013)
Substitutions are numbered along the chain they refer to.

What was measured:
RapJ = biological target: T1, RapJ (B. subtilis strain 168, UniProt O34327 1-373); test: SEC + other: MALDI-TOF and MALDI-TOF/TOF mass spectrometry; 8.5 mM PhrC mixed with 425 µM RapJ (wild type or R105A,Y161F), Superdex 200 16/70 in 20 mM Tris-HCl pH 8.0, 50 mM KCl, 5 mM MgCl2, 5 mM DTT; peak fractions analysed for PhrC (m/z 593.27); PhrC alone as control; settings: both partners purified
T1 construct: RapJ, Bacillus subtilis strain 168, amplified from genomic DNA; no heterologous residues after removal of His-Sumo; Phases came from selenomethionyl RapJ crystals; In the functional rows the in vivo RapJ was expressed in B. subtilis VP068 from pDRJ1 (IS75 DNA); also called response regulator aspartate phosphatase J; wild-type RapJ; source: E. coli BL21(DE3), purified (His-60 Ni resin, SUMO …)
T1 sequence (looked up): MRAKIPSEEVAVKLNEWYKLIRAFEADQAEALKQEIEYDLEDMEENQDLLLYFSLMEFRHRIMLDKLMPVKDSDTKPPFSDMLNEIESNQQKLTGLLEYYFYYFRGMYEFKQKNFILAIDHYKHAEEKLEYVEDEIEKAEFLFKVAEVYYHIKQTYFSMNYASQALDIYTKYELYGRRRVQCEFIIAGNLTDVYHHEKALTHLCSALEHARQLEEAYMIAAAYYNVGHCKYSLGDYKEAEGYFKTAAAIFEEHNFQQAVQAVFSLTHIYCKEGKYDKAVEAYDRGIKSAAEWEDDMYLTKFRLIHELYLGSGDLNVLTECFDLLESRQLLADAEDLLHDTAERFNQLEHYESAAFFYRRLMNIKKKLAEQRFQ

RapJ-R105A,Y161F = biological target: T2, RapJ-R105A,Y161F (B. subtilis, UniProt O34327 1-373, R105A | Y161F); test: as above; settings: both partners purified
T2 construct: RapJ, Bacillus subtilis, double mutant R105A,Y161F; same construct limits as wild-type RapJ; source: overexpressed and purified as for X-ray crystallography (E. coli; after the SourceQ step dialysed against buffer H); not shown: His, N-terminal, cleaved; SUMO, N-terminal, cleaved
T2 sequence (looked up): T1 sequence (looked up) with R105A, Y161F

binding result (RapJ): binds
binding result (RapJ-R105A,Y161F): binds
B1: PhrC (peptide)
peptide: ERGMT
notes: mature PhrC pentapeptide (NH2-ERGMT-COOH), cut from the C-terminus of pro-PhrC, Bacillus subtilis; also called CSF; source: synthetic peptide, bought: LifeTein, 95% purity
